According to US20240279281A1, “Peptide Inhibitors of Interleukin-23 Receptor” (Janssen Pharmaceutica NV, priority 2023, published 2024):
Starred links: 1 amine or outer side, 2 acyl side, 3 side chain; linkers in the order of their positions; H or OH if unused. Positions of bridges follow the written chain, without caps; N, C: chain ends. Non-standard residues stand in square brackets, D forms with d. No end group written: not given here. X1 = 3‑(7-(3-acetamidophenyl)-1H-indol-3-yl)‑2‑aminopropanoic acid, CC(=O)Nc1cccc(-c2cccc3c(CC(N[*:1])C(=O)[*:2])c[nH]c23)c1; AEF(G) = 2-amino-3-(4-(2-guanidinoethoxy)phenyl)propanoic acid, N=C(N)NCCOc1ccc(C[C@H](N[*:1])C(=O)[*:2])cc1; X10 = 2‑amino‑3‑(4-(2-guanidinoethoxy)phenyl)propanoic acid, N=C(N)NCCOc1ccc(CC(N[*:1])C(=O)[*:2])cc1; X7 = 2‑amino‑3‑(5-methylpyridin-3-yl)propanoic acid, Cc1cncc(CC(N[*:1])C(=O)[*:2])c1; 2Nal(6-OH) = N[C@@H](Cc1ccc2cc(O)ccc2c1)C(=O)O; Trp(7-Me) = Cc1cccc2c(C[C@H](N)C(=O)O)c[nH]c12; d(hLys(Me3)) = C[N+](C)(C)CCCCC[C@@H](N)C(=O)O; AEF = NCCOc1ccc(C[C@H](N)C(=O)O)cc1; 3Pal = N[C@@H](Cc1cccnc1)C(=O)O; Lipidated = not defined here; NMeK = CN[C@@H](CCCCN)C(=O)O; Pen = CC(C)(S)[C@H](N)C(=O)O; αMeC = C[C@](N)(CS)C(=O)O; lipid = not defined here; Thp = NC1(C(=O)O)CCOCC1; Abu = CC[C@H](N)C(=O)O; PEG = not defined here; Ava = NCCCCC(=O)O; Sar = CNCC(=O)O

T1: interleukin-23 receptor (IL-23R), Q5VWK5
T1 chain: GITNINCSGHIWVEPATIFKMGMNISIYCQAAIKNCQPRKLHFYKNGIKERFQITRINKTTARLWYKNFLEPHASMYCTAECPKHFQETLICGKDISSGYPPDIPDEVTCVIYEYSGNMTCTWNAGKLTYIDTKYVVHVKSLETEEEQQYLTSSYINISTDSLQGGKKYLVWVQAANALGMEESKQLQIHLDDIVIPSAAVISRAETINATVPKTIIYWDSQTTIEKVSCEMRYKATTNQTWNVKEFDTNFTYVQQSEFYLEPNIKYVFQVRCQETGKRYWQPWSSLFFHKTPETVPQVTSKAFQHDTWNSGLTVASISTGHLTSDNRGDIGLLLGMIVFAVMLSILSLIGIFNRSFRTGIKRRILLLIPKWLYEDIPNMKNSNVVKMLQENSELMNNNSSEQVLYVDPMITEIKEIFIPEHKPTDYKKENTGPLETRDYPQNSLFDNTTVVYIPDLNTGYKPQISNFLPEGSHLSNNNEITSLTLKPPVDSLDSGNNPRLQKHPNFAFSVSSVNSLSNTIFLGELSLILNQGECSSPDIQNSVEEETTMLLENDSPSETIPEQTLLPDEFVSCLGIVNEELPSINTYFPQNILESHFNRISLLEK

B1: SEQ ID NO: 188 (peptide)
peptide: [Pen]NT[Trp(7-Me)]K(Lipidated)[Pen][2‑amino‑3‑(4-(2-aminoethoxy)phenyl)propanoic acid][2‑amino‑3‑(6-hydroxynaphthalen-2-yl)propanoic acid][Thp]K(Ac)N[3Pal][Sar]
modifications: disulfide 1-6 (inferred); ends not checked; also: K5 lipidated lysine, lipid not given here
B2: SEQ ID NO: 183 (peptide)
peptide: [Pen]NT[Trp(7-Me)]K(Lipidated)[Pen][5‑(4-(2-amino-2-carboxyethyl)phenoxy)‑N,N,N‑trimethylpentan‑1‑aminium][2‑amino‑3‑(6-hydroxynaphthalen-2-yl)propanoic acid][Thp]K(Ac)N[3Pal][Sar]
modifications: disulfide 1-6 (inferred); ends not checked; also: K5 lipidated lysine, lipid not given here
B3: SEQ ID NO: 222 (peptide)
peptide: R[Pen]NT[Trp(7-Me)]K(Ac)[Pen][2‑amino‑3‑(4-(2-aminoethoxy)phenyl)propanoic acid][2‑amino‑3‑(6-hydroxynaphthalen-2-yl)propanoic acid][Thp]K(Ac)N[3Pal][Sar]K(lipid)
modifications: disulfide 2-7 (inferred); ends not checked; also: Lys15 lipidated, lipid not given here
B4: SEQ ID NO: 177 (peptide)
peptide: [Pen]NT[Trp(7-Me)]K(Ac)[Pen][2‑amino‑3‑(4-(2-aminoethoxy)phenyl)propanoic acid][2‑amino‑3‑(6-hydroxynaphthalen-2-yl)propanoic acid][Thp]K(lipid)N[3Pal][Sar]
modifications: disulfide 1-6 (inferred); ends not checked; also: K10 lipidated, lipid not given here
B5: SEQ ID NO: 200 (peptide)
peptide: [Pen]NT[Trp(7-Me)]K(Lipidated)[Pen][2‑amino‑3‑(4-(2-aminoethoxy)phenyl)propanoic acid][2‑amino‑3‑(6-hydroxynaphthalen-2-yl)propanoic acid][Thp]K(PEG)N[3Pal][Sar]
modifications: disulfide 1-6 (inferred); ends not checked; also: lipid structure not given here, PEG size not given here
B6: SEQ ID NO: 187 (peptide)
peptide: [d(hLys(Me3))][Pen]NT[Trp(7-Me)]K(Lipidated)[Pen][2‑amino‑3‑(4-(2-aminoethoxy)phenyl)propanoic acid][2‑amino‑3‑(6-hydroxynaphthalen-2-yl)propanoic acid][Thp]K(Ac)N[3Pal][Sar]
modifications: disulfide 2-7 (inferred); ends not checked; also: K6 lipidated lysine, lipid not given here
B7: SEQ ID NO: 167 (peptide)
peptide: [(R)‑3‑carboxy‑2‑(4-(((R)-5-carboxy-5-hydrazineylpentyl)amino)-4-oxobutanamido)‑N,N,N‑trimethylpropan‑1‑aminium][Pen]NT[Trp(7-Me)]K(Ac)[Pen][2‑amino‑3‑(4-(2-aminoethoxy)phenyl)propanoic acid][2‑amino‑3‑(6-hydroxynaphthalen-2-yl)propanoic acid][Thp]EN[3Pal][NMeK](lipid)
modifications: disulfide 2-7 (inferred); ends not checked; also: X14: lipidated N-methyl-lysine, lipid and methyl place not given here
B8: SEQ ID NO: 178 (peptide)
peptide: [Pen]NT[Trp(7-Me)]K(lipid)[Pen][2‑amino‑3‑(4-(2-aminoethoxy)phenyl)propanoic acid][2‑amino‑3‑(6-hydroxynaphthalen-2-yl)propanoic acid][Thp]K(Ac)N[3Pal][Sar]
modifications: disulfide 1-6 (inferred); ends not checked; also: K5 lipidated, lipid not given here
B9: SEQ ID NO: 189 (peptide)
peptide: [Pen]NT[Trp(7-Me)]K(Lipidated)[Pen][2‑amino‑3‑(4-(2-aminoethoxy)phenyl)propanoic acid][2‑amino‑3‑(6-hydroxynaphthalen-2-yl)propanoic acid][Thp]K(Ac)N[3Pal][Sar]
modifications: disulfide 1-6 (inferred); ends not checked; also: K5 lipidated lysine, lipid not given here

Target: T1, interleukin-23 receptor (IL-23R), Q5VWK5
Assay: cell-based or functional assay

Row | IL23R Reporter Assay IC50 [nM] | PBMC pSTAT3 IC50 | Binder
1 | > 100 | < 1 nM | B1
2 | < 10 | < 10 pM | R[Pen]ET[X1]K(Ac)[Pen][2‑amino‑3‑(4-(2-aminoethoxy)phenyl)propanoic acid][2‑amino‑3‑(6-hydroxynaphthalen-2-yl)propanoic acid][Thp]EN[3Pal][Sar] (disulfide 2-7 (inferred); ends not checked) [SEQ ID NO: 158]
3 | > 100 | < 1 nM | B2
4 | > 100 | > 1 nM | B3
5 | > 100 | > 1 nM | B4
6 | > 100 | < 1 nM | B5
7 | < 10 |  | [Pen]NT[Trp(7-Me)]K(Ac)[Pen][AEF][2Nal(6-OH)][Thp]EN[3Pal][Sar] (ends and bridges not checked) [SEQ ID NO: 3]
8 | > 100 | < 1 nM | [(R)‑3‑carboxy‑2‑(4-(((R)-5-carboxy-5-hydrazineylpentyl)amino)-4-oxobutanamido)‑N,N,N‑trimethylpropan‑1‑aminium][Pen]NT[Trp(7-Me)]K(Ac)[Pen][2‑amino‑3‑(4-(2-aminoethoxy)phenyl)propanoic acid][2‑amino‑3‑(6-hydroxynaphthalen-2-yl)propanoic acid][Thp]EN[3Pal][NMeK](lipid) (disulfide 2-7 (inferred); not fully specified; ends not checked) [SEQ ID NO: 168]
9 | < 10 | < 0.1 nM | R[Abu]NTWK(Ac)[αMeC][AEF][2Nal(6-OH)][Thp]K(Ac)N[3Pal][Sar] (ends and bridges not checked) [SEQ ID NO: 29]
10 | > 100 | < 1 nM | B6
11 | < 10 | < 10 pM | R[Pen]NT[Trp(7-Me)]K(Ac)[Pen][AEF(G)][2Nal(6-OH)][Thp]EN[3Pal][Sar] (ends and bridges not checked) [SEQ ID NO: 32]
12 | < 10 | < 0.1 nM | R[Pen]NT[Trp(7-Me)]K(Ac)[Pen][2‑amino‑3‑(4-(2-aminoethoxy)phenyl)propanoic acid][2‑amino‑3‑(6-hydroxynaphthalen-2-yl)propanoic acid][Thp]K(Ac)N[3Pal][Sar] (disulfide 2-7 (inferred); ends not checked) [SEQ ID NO: 219]
13 | < 10 |  | R[Abu]NTWK(Ac)[αMeC][AEF][2Nal(6-OH)][Thp]K(Ac)N[3Pal][Sar] (ends and bridges not checked) [SEQ ID NO: 28]
14 | > 100 | < 1 nM | B7
15 | < 10 | < 10 pM | [Pen]NT[X1]K(Ac)[Pen][5‑(4-(2-amino-2-carboxyethyl)phenoxy)‑N,N,N‑trimethylpentan‑1‑aminium][2‑amino‑3‑(6-hydroxynaphthalen-2-yl)propanoic acid][Thp]EN[X7][Sar] (ends and bridges not checked) [SEQ ID NO: 22]
16 | > 100 | > 1 nM | B8
17 | > 100 | < 1 nM | B9
18 | < 10 | < 0.1 nM | [Pen]NT[Trp(7-Me)]K(Ac)[Pen][X10][2Nal(6-OH)][Thp]EN[3Pal][Sar] (ends and bridges not checked) [SEQ ID NO: 24]
19 | < 10 | < 10 pM | [Ava][Abu]NT[Trp(7-Me)]K(Ac)C[2‑amino‑3‑(4-(2-aminoethoxy)phenyl)propanoic acid][2‑amino‑3‑(6-hydroxynaphthalen-2-yl)propanoic acid][Thp]EN[3Pal][Sar] (ends and bridges not checked) [SEQ ID NO: 171]
20 | < 10 | < 10 pM | [Ava][Abu]NTWQC[2‑amino‑3‑(4-(2-aminoethoxy)phenyl)propanoic acid][2‑amino‑3‑(6-hydroxynaphthalen-2-yl)propanoic acid][Thp]EN[3Pal][Sar] (ends and bridges not checked) [SEQ ID NO: 172]
